Experimental data from patent US20170015742A1 (published 2017).

Tests used:
Human VEGF-A 165 [1] = target: T1, Human VEGF-A 165 (human, UniProt P15692 207-395); test: SPR (Biacore), antibody captured via anti-human Fc, antigen in solution
T1 construct: Recombinant human VEGF165; also called hVEGF165; huVEGF-A165
Procedure: For example, approximately 9000 RU of goat anti-human Fc specific polyclonal antibody (Thermo Fisher Scientific Inc., Rockford, Ill.) diluted in 10 mM sodium acetate (pH 4.5) is directly immobilized across a CM5 research grade biosensor chip using a standard amine coupling kit according to manufacturer's instructions and procedures at 25 μg/ml. Unreacted moieties on the biosensor surface were blocked with ethanolamine. For kinetic analysis, rate equations derived from the 1:1 Langmuir binding model were fitted simultaneously to multiple antigen injections (using global fit analysis) with the use of Scrubber 2 (BioLogic Software), Biacore Biaevaluation 4.0.1 software or Biacore T100 Evaluation software. Purified antibodies or DVD-Ig molecules were diluted in running buffer for capture across goat anti-human Fc reaction surfaces. Antibodies or DVD-Ig molecules to be captured as a ligand (1 μg/ml) were injected over reaction matrices at a flow rate of 10 μl/minute. During the assay, all measurements were referenced against the capture surface alone (i.e., with no captured antibody or DVD-Ig molecule). […] The equilibrium dissociation constant KD (M) of the reaction between antibodies and the target antigen was then calculated from the kinetic rate constants by the following formula: KD=Koff/Kₒₙ. Binding was recorded as a function of time and kinetic rate constants were calculated.

Human VEGF-A 165 [2] = target: T1, Human VEGF-A 165; test: cell-based or functional assay
[3] = target: T2, recombinant human VEGF-A 165 (human, UniProt P15692 207-395); test: receptor competition ELISA, biotinylated hVEGF165 binding to coated hVEGF-R2-Fc
T2 construct: also called huVEGF-A165; hVEGF165
Procedure: To identify molecules that could block the binding of hVEGF₁₆₅ to the hVEGF-R2 (KDR/Flk-1) receptor, a competition ELISA was performed. […] Plates were then washed four times with wash buffer (TBS, 0.05% Tween-20) and blocked with Superblock blocking buffer (Thermo Scientific, cat#37535). […] The pre-incubated sample/hVEGF₁₆₅ complex was added to the coated plate at 50 μL in duplicate and incubated for 30 minutes at 25° C. with shaking. Following incubation, plates were washed four times with wash buffer. Streptavidin-polyHRP-40 (Fitzgerald cal#65r-s104phrp) was diluted in assay diluent (10% Superblock containing 0.05% surfactamps) and added to plates (50 μL) for 45 minutes at 25° C. with shaking. Plates were washed four times with wash buffer and developed with the addition of Enhanced K-blue TMB substrate (Neogen cat#308177). The reaction was stopped with 2N sulfuric acid (VWR, cat# BDH3500-1) and the absorbance was read at 450 nm-570 nm. A decrease in observed optical density indicates the test molecule is blocking the hVEGF₁₆₅ binding to the hVEGF-R2-Fc. Data was analyzed using Softmax Pro 4.8 software and IC₅₀ values calculated using a sigmoidal dose response (variable slope) fit in GraphPad Prism 5.
Anti-VEGF-A antibodies derived from rat hybridomas were characterized for binding, function and cross-reactivity in a panel of assays. Supernatants were tested for the ability to bind hVEGF₁₆₅ (Example 1.3) and block binding of hVEGF₁₆₅ to hVEGFR2 in a competition ELISA format (Example 1.4).

[4] = target: recombinant human PDGF-BB (human, UniProt P01127 82-190); test: cell-based or functional assay
[5] = target: recombinant human VEGF165 (human, UniProt P15692 207-395); test: cell-based or functional assay
[6] = target: recombinant murine PDGF-BB (mouse, UniProt P31240 82-190); test: cell-based or functional assay
recombinant rat PDGF-BB = recombinant rat PDGF-BB (rat, UniProt Q05028 74-182); test: cell-based or functional assay
recombinant rat PDGF-BB, sequence (Q05028 74-182 limits assumed): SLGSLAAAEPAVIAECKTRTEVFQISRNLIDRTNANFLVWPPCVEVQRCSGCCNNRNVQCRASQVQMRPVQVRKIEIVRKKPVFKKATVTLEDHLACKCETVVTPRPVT

T1 sequence (P15692 other isoform, or with tags, fused parts or gaps limits assumed): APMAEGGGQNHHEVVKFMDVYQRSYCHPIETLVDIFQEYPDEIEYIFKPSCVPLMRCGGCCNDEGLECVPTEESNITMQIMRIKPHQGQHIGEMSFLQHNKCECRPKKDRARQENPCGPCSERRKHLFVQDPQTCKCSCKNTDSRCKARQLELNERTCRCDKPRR
recombinant human VEGF165, sequence (P15692 other isoform, or with tags, fused parts or gaps limits assumed): as above
T2 sequence (P15692 other isoform, or with tags, fused parts or gaps limits assumed): as above
recombinant murine PDGF-BB, sequence (P31240 82-190 limits assumed): as the sequence (Q05028 74-182 limits assumed) above, with V83I, V102I counted along it

| Kd (Human VEGF-A 165 [1]) [pM] | kon (Human VEGF-A 165 [1]) [M⁻¹ s⁻¹] | hVEGF165 IC50 (nM), HMVEC-d proliferation (Human VEGF-A 165 [2]) [nM] | NIH-3T3 hPDGF-BB Potency IC50 [4] [pM] | HMVEC-d hVEGF165 Potency IC50 [5] [pM] | Binder | further results |
| --- | --- | --- | --- | --- | --- | --- |
| 7.7 | 1.1e+07 | 0.138 |  |  | hBEW-1E3.1 (antibody, V domains shown, Humanized IgG) VH: EIQLVQSGSELKKPGASVKVSCKASGYPFTNSGMYWVKQAPGQGLEYMGWINTEAGKPTYADDFKGRFVFSLDTSVSTAYLQISSLKAEDTAVYFCARWGYISDNSYGWFDYWGQGTLVTVSS VL: ETVLTQSPATLSLSPGERATLSCRASEGVYSYMHWYQQKPGQQPRLLIYKASNLASGVPARFSGSGSGTDFTLTISSLEPEDFAVYFCHQNWNDPLTFGQGTKLEIK |  |
| 9.7 | 9.8e+06 | 0.212 |  |  | hBEW-1E3.4 (antibody, V domains shown, Humanized IgG) VH: EIQLVQSGSELKKPGASVKVSCKASGYPFTNSGMYWVKQAPGQGLEYMGWINTEAGKPTYADDFKGRFVFSLDTSVSTAYLQISSLKAEDTAVYFCARWGYISDNSYGWFDYWGQGTLVTVSS VL: ATQLTQSPSSLSASVGDRVTISCRASEGVYSYMHWYQQKPGKQPKLLIYKASNLASGVPSRFSGSGSGTDFTLTISSLQPEDFATYFCHQNWNDPLTFGQGTKLEIK |  |
| 9.2 | 1.1e+07 | 0.161 |  |  | hBEW-1E3.2 (antibody, V domains shown, Humanized IgG) VH: EIQLVQSGAEVKKPGASVKVSCKASGYPFTNSGMYWVKQAPGQGLEYMGWINTEAGKPTYADDFKGRFTFTLDTSTSTAYLEIRSLRSDDTAVYFCARWGYISDNSYGWFDYWGQGTLVTVSS VL: ETVLTQSPATLSLSPGERATLSCRASEGVYSYMHWYQQKPGQQPRLLIYKASNLASGVPARFSGSGSGTDFTLTISSLEPEDFAVYFCHQNWNDPLTFGQGTKLEIK |  |
| 10 | 1e+07 | 0.184 |  |  | hBEW-1E3.5 (antibody, V domains shown, Humanized IgG) VH: EIQLVQSGAEVKKPGASVKVSCKASGYPFTNSGMYWVKQAPGQGLEYMGWINTEAGKPTYADDFKGRFTFTLDTSTSTAYLEIRSLRSDDTAVYFCARWGYISDNSYGWFDYWGQGTLVTVSS VL: ATQLTQSPSSLSASVGDRVTISCRASEGVYSYMHWYQQKPGKQPKLLIYKASNLASGVPSRFSGSGSGTDFTLTISSLQPEDFATYFCHQNWNDPLTFGQGTKLEIK |  |
|  |  |  |  |  | BEW-9E7-B4 (antibody, V domains shown, Rat hybridoma anti-human VEGF-A monoclonal antibody, isotype IgG2b/kappa) VH: QIQLVQSGPELKKPGESVKISCKASGYTFTNYGMYWVKQAPGQGLQYMGWIDTETGKPTYADDFKGRFVFFLETSASTAYLQINNLRNEDMATYFCARWGYTSDYYYGWFPDWGQGTLVTVST VL: DTVLTQSPALAVSPGERVSISCRASEGVNSYMHWYQQNPGQQPKLLIYKASNLASGVPARFSGSGSGTDFTLNIHPVEADDTATYFCQQNWNVPLTFGSGTKLEIK | IC50 [3]: 207 pM |
|  |  |  |  |  | BEW-9C2-D6 (antibody, V domains shown, Rat hybridoma anti-human VEGF-A monoclonal antibody, isotype IgG2b/kappa) VH: QIQLVQSGPELKKPGESVKVSCKASGYTFTNYGIHWVKQAPGQGLQYVGWINTETGRPTYADDFKGRFVFFLETSASTAYLQINNLKNEDMATYFCARPLYYGYAHYFDYWGQGVMVTVSS VL: DIQMTQSPASLSASLEEIVTITCQASQDIGNWLAWYQQKPGKSPQLLIYGATSLADGVPSRFSGSRSGTQYSLKISRLQVEDIGIYYCQQASSVTYTFGAGTKLELK | IC50 [3]: 155 pM |
|  |  |  | 76 | 2640 | 9E8.4-GS-4G8.3 DVD-Ig (PR-1563988) (bispecific antibody, human IgG1, kappa, L234A L235A) heavy: not shown light: EFVLTQSPGTLSLSPGERATLSCERSSGDIGDSYVSWYQQKPGQAPRLVIYADDQRPSGIPDRFSGSGSGTDFTLTISRLEPEDFAVYYCQSYDINIDIVFGGGTKVEIKGGGSGGGGSGDTVLTQSPATLSLSPGERATLSCRASESVSTHMHWYQQKPGQAPRLLIYGASNLESGVPARFSGSGSGTDFTLTISSLEPEDFAVYFCQQSWNDPFTFGQGTKLEIKRTVAAPSVFIFPPSDEQLKSGTASVVCLLNNFYPREAKVQWKVDNALQSGNSQESVTEQDSKDSTYSLSSTLTLSKADYEKHKVYACEVTHQGLSSPVTKSFNRGEC |  |
|  |  |  |  |  | 4G8.3-LS-9E8.4 anti-VEGF-A/anti-PDGF-BB DVD-Ig (PR-1564013) (bispecific antibody, human IgG1, kappa, L234A L235A) heavy: not shown light: DTVLTQSPATLSLSPGERATLSCRASESVSTHMHWYQQKPGQAPRLLIYGASNLESGVPARFSGSGSGTDFTLTISSLEPEDFAVYFCQQSWNDPFTFGQGTKLEIKRTVAAPEFVLTQSPGTLSLSPGERATLSCERSSGDIGDSYVSWYQQKPGQAPRLVIYADDQRPSGIPDRFSGSGSGTDFTLTISRLEPEDFAVYYCQSYDINIDIVFGGGTKVEIKGTVAAPSVFIFPPSDEQLKSGTASVVCLLNNFYPREAKVQWKVDNALQSGNSQESVTEQDSKDSTYSLSSTLTLSKADYEKHKVYACEVTHQGLSSPVTKSFNRGEC | Potency IC50 (nM) mPDGF-BB (NIH-3T3 proliferation) [6]: 0.11 nM; Potency IC50 (nM) ratPDGF-BB (NIH-3T3 proliferation) (recombinant rat PDGF-BB): 0.21 nM |
|  |  |  | 75 | 104 | CODV015 cross-over DVD-Ig (PR-1571827) (bispecific antibody, human IgG1, kappa, L234A L235A) heavy: EVQLVQSGSELKKPGASVKVSCKASGYTFTNYGMYWVRQAPGQGLEWMGWINTETGKPTYADDFKGRFVFSLDTSVSTAYLQISSLKAEDTAVYYCARTNYYYRSYIFYFDYWGQGTMVTVSSGGGGSGGGEFVLTQSPGTLSLSPGERATLSCERSSGDIGDSYVSWYQQKPGQAPRLVIYADDQRPSGIPDRFSGSGSGTDFTLTISRLEPEDFAVYYCQSYDINIDIVFGGGTKVEIKGGGSGASTKGPSVFPLAPSSKSTSGGTAALGCLVKDYFPEPVTVSWNSGALTSGVHTFPAVLQSSGLYSLSSVVTVPSSSLGTQTYICNVNHKPSNTKVDKKVEPKSCDKTHTCPPCPAPEAAGGPSVFLFPPKPKDTLMISRTPEVTCVVVDVSHEDPEVKFNWYVDGVEVHNAKTKPREEQYNSTYRVVSVLTVLHQDWLNGKEYKCKVSNKALPAPIEKTISKAKGQPREPQVYTLPPSREEMTKNQVSLTCLVKGFYPSDIAVEWESNGQPENNYKTTPPVLDSDGSFFLYSKLTVDKSRWQQGNVFSCSVMHEALHNAYTQKSLSLSPGK light: EVTLRESGPALVKPTQTLTLTCTFSGFSLSTYGMGVGWIRQPPGKALEWLANIWWDDDKYYNPSLKNRLTISKDTSKNQVVLTMTNMDPVDTATYYCARIESIGTTYSFDYWGQGTMVTVSSGGGGSGGGDTVLTQSPATLSLSPGERATLSCRASESVSTHMHWYQQKPGQAPRLLIYGASNLESGVPARFSGSGSGTDFTLTISSLEPEDFAVYFCQQSWNDPFTFGQGTKLEIKGGSRTVAAPSVFIFPPSDEQLKSGTASVVCLLNNFYPREAKVQWKVDNALQSGNSQESVTEQDSKDSTYSLSSTLTLSKADYEKHKVYACEVTHQGLSSPVTKSFNRGEC |  |
|  |  |  | 96 | 115 | CODV016 cross-over DVD-Ig (PR-1571828) (bispecific antibody, human IgG1, kappa, L234A L235A) heavy: EVQLVQSGSELKKPGASVKVSCKASGYTFTNYGMYWVRQAPGQGLEWMGWINTETGKPTYADDFKGRFVFSLDTSVSTAYLQISSLKAEDTAVYYCARTNYYYRSYIFYFDYWGQGTMVTVSSGGGGSGGGEFVLTQSPGTLSLSPGERATLSCERSSGDIGDSYVSWYQQKPGQAPRLVIYADDQRPSGIPDRFSGSGSGTDFTLTISRLEPEDFAVYYCQSYDINIDIVFGGGTKVEIKGGGSGASTKGPSVFPLAPSSKSTSGGTAALGCLVKDYFPEPVTVSWNSGALTSGVHTFPAVLQSSGLYSLSSVVTVPSSSLGTQTYICNVNHKPSNTKVDKKVEPKSCDKTHTCPPCPAPEAAGGPSVFLFPPKPKDTLMISRTPEVTCVVVDVSHEDPEVKFNWYVDGVEVHNAKTKPREEQYNSTYRVVSVLTVLHQDWLNGKEYKCKVSNKALPAPIEKTISKAKGQPREPQVYTLPPSREEMTKNQVSLTCLVKGFYPSDIAVEWESNGQPENNYKTTPPVLDSDGSFFLYSKLTVDKSRWQQGNVFSCSVMHEALHNAYTQKSLSLSPGK light: EVTLRESGPALVKPTQTLTLTCTFSGFSLSTYGMGVGWIRQPPGKALEWLANIWWDDDKYYNPSLKNRLTISKDTSKNQVVLTMTNMDPVDTATYYCARIESIGTTYSFDYWGQGTMVTVSSGGGGSDTVLTQSPATLSLSPGERATLSCRASESVSTHMHWYQQKPGQAPRLLIYGASNLESGVPARFSGSGSGTDFTLTISSLEPEDFAVYFCQQSWNDPFTFGQGTKLEIKGGSRTVAAPSVFIFPPSDEQLKSGTASVVCLLNNFYPREAKVQWKVDNALQSGNSQESVTEQDSKDSTYSLSSTLTLSKADYEKHKVYACEVTHQGLSSPVTKSFNRGEC |  |
